The text below walks through data of article PMC4287557 (PLoS Pathogens, 2015).

The target in one assay is JRFL gp120 monomer (HIV-1 subtype B strain JRFL, UniProt Q75760). Kind of assay: BLI. The following applies: both partners purified.
For a further assay, the target named is 16055 gp120 monomer (HIV-1 subtype C strain 16055). Kind of assay: BLI. The following applies: both partners purified.

B1: VRC01 IgG (antibody, V domains shown)
VH: QVQLVQSGGQMKKPGESMRISCRASGYEFIDCTLNWIRLAPGKRPEWMGWLKPRGGAVNYARPLQGRVTMTRDVYSDTAFLELRSLTVDDTAVYFCTRGKNCDYNWDFEHWGRGTPVIVSS
VL: EIVLTQSPGTLSLSPGETAIISCRTSQYGSLAWYQQRPGQAPRLVIYSGSTRAAGIPDRFSGSRWGPDYNLTISNLESGDFGVYYCQQYEFFGQGTKVQVD
notes: also called bNAb VRC01
On to B1, for which the binding result in the assay with JRFL gp120 monomer and with 16055 gp120 monomer was “binds” in each case.
